Measurements from PMC12473987.

Target: strep-HA3/B (Clostridium botulinum serotype B strain Okra)
Assay: SEC; […], PBS pH 6.0, 0.75 mL/min, […]

strep-HA3/B (domain or fragment) was tested, and the stoichiometry N was 3.
